Like-named read-outs stand apart in the source and are kept apart here.
Key:
Assay in all cases: FACS binding
[1] = molecular target: CHOS-hCCR8-hCTLA-4 cell (human) (UniProt P16410)
[2] = molecular target: CHOS-hCCR8-hCTLA-4 cell (human) (UniProt P16410); remark: listed apart in the source
[3] = molecular target: CHOS-hCCR8-hCTLA-4 cell (human) (UniProt P16410); remark: listed apart in the source

Sequence of CHOS-hCCR8-hCTLA-4 cell (human) (P16410 36-223, chain 1 of 2): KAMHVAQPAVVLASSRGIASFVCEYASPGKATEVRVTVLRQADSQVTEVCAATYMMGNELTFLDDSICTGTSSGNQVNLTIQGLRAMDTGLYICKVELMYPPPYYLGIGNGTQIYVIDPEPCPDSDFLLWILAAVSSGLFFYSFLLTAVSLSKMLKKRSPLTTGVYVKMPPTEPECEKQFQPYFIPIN
Sequence of CHOS-hCCR8-hCTLA-4 cell (human) (P51685 whole entry, chain 2 of 2, further chain): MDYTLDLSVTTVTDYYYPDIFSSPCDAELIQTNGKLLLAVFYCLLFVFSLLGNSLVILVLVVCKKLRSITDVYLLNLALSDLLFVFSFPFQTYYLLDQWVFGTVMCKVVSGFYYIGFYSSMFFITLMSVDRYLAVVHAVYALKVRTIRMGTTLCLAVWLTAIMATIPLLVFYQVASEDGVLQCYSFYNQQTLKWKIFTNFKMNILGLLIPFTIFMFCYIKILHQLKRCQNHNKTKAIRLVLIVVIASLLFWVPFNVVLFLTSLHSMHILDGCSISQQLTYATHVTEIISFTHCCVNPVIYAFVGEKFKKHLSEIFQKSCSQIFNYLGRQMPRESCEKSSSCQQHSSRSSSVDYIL

Question: How did the EC50 [1] turn out when Yervoy was run?
Answer: The EC50 was 0.682 nM.

Question: And the EC50 [2]?
Answer: The EC50 was 0.75 nM.

Question: And the EC50 [3]?
Answer: The EC50 was 0.722 nM.
